Source: paper PMC11388503

Target: T1, procalcitonin (UniProt P01258 26-141)
T1 sequence: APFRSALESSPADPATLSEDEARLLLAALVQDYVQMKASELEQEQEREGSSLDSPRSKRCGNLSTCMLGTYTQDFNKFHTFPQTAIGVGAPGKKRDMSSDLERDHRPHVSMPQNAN
Assay: electrochemical IDE sensor

## GGCGCCGTCAAGGCATTACAATTACGGATATGAACTCGAC (ssDNA, 5'-SH (thiol)) [complementary aptamer]
  binding result: no binding
